Assays:
Test in all cases: co-IP; mCherry-Rac1 transiently expressed in HEK293T for 16 h, precipitated with the RFP-TRAP kit (Chromotek); endogenous RhoGDI by Western blot, quantified (n = 3)
mCherry-Rac1 Y64F = mCherry-Rac1 Y64F (UniProt P63000)
mCherry-Rac1 G12V = mCherry-Rac1 G12V (UniProt P63000)
mCherry-Rac1 P29S = mCherry-Rac1 P29S (UniProt P63000)
mCherry-Rac1 F28L = mCherry-Rac1 F28L (UniProt P63000)

Measured: reduction of co-precipitated GDI against Rac1 WT

RhoGDI (endogenous, HEK293T) (from UniProt P52565 1-204) (natural protein)
50%: all assays above
